# Residue numbers refer to the chain shown, from its start. Names and notes keep the numbering of the source. Marks after values point to notes of the source that are not given here.
# B1: Example 11: NRG4 D1G/V22Q/E44K, (GGGGS)3 linker, SEQ ID NO: 19, fused to IgG Fc dimer SEQ ID NO: 8 and 9 (protein)
# chain 1: GGGGSGGGGSGGGGSGHEEPCGPSHKSFCLNGGLCYQIPTIPSPFCRCVENYTGARCEKVFL
# chain 2: ECPPCPAPPVAGPSVFLFPPKPKDTLMASRTPEVTCVVVDVSHEDPEVQFNWYVDGVEVHNAKTKPREEQFNSTFRVVSVLTVVHQDWLNGKEYKCKVSNKGLPAPIEKTISKTKGQPREPQVYTLPPSREEMTKNQVSLWCLVKGFYPSDIAVEWESNGQPENNYKTTPPVLDSDGSFFLYSKLTVDKSRWQQGNVFSCSVMHEALHNAYTQKSLSLSPG
# chain 3: B1 chain 2 with W141S, L143A, Y182V
# How the values were obtained:
# rats = test: Toxicology study in rats, cardiac tissue inspection; conditions: single SC injection of 30 mg/kg
# rat HER2/HER4 = target: T1, rat HER2/HER4 (Rattus norvegicus, UniProt Q62956); test: Rat HER2/HER4 phospho-ERK 1/2 assay, purified proteins, CHO-K1 cells; format: cell-based
# T1 construct: expressed in transfected cells
# Description: (§1) A cell based assay utilizing CHO-K1 cells overexpressing human or rat HER receptors is used to determine activity of NRG4 compounds. CHO-K1 cells (ATCC) are grown in DMEM-F12 3:1 with 5% FBS with 20 mM HEPES, 40 μg/mL L-Proline, lx antibiotics and were split 1:5 every 2-3 days with TripLE Express (Gibco). Cells are transfected with plasmid DNA encoding HER receptors in pairs (hHER2-3, hHER2-4, rHER2-3 and rHER2-4) with Fugene 6 (Promega) according to the manufacturer's instructions. […] Transfected cells are selected with Puromycin (12 ug/ml) and Hygromycin (1 mg/ml) for 3-4 weeks and clonal lines are obtained by limited dilution cloning into 96 well plates. Clonal lines are selected by appropriate gene expression of HER2, HER3 or HER4 by Taqman method. Lines with appropriate receptor expression are confirmed by NRG1 induced phospho-ERK 1/2 responses. Clones are grown up, harvested, aliquoted into cryovials and then frozen under liquid nitrogen for long-term storage.
# (§2) A phospho-ERK1/2 activity assay is utilized with CHO-K1 cells overexpressing human or rat HER receptors to determine potencies and selectivity of purified NRG4 compounds. CHO-K1 cell lines expressing the human or rat HER receptors are cultured with selection medium (DMEM-F12 3:1 with 5% FBS with 20 mM HEPES, 40 μg/mL L-Proline, 1× antibiotics, 12 μg/mL puromycin, 1 mg/mL Hygromycin B). On Day −1 (the day before phospho-ERK1/2 assay), cells are washed once with PBS, detached with enzyme free cell dissociation solution (GIBCO cat #13151-014), and resuspended in plating medium (DMEM-F12 3:1 with 20 mM HEPES, lx antibiotics, 0.2% FBS). Cells are plated in a 96-well Poly-D-Lysine coated plate (BD cat #354640) at 10,000 cells per 0.1 mL per well. Cells are cultured in a tissue culture incubator at 37° C. 5% CO2 overnight. On Day 1 (the day of pERK1/2 assay), plates are incubated at room temperature for 30 min. The culture media are removed followed by addition of 504, ligand at various concentrations diluted in PBS-20 mM HEPES-0.005% BSA. Native human NRG1 and NRG4 peptides are purchased from Reprokine (Tampa, Fla.). The stimulation time is 30 min (except for hHER2-4 1H6 line in which 15 min is used for stimulation). At the end of stimulation, ligands are removed and 704, Lysis buffer (made according to manufacturer's recipe, Perkin Elmer cat #ALSU-PERK-A10K) is added. Plates are incubated at room temperature for 10 min on plate shaker with 350 rpm agitation, then on ice for 1 hour without shaking. 304, of cell lysis is transferred to a 96-well white Optiplate (Perkin Elmer cat #6002290) for phospho-ERK1/2 assay. Briefly 7.5 μL acceptor beads are added to 30 μL lysis in Optiplate. The plate is covered with aluminum foil and incubated at room temperature for 1 hour on plate shaker with 350 rpm agitation. Then 7.5 μL donor beads are added and the plate is covered with aluminum foil and incubated at room temperature for 2 hours on plate shaker with 350 rpm agitation or at 4° C. for overnight (warm up plate at room temperature for 2 h before reading). Alpha signal data are obtained on an Envision instrument (Alpha Technology-compatible plate reader). Donor beads and acceptor beads are made according to assay protocol. The data shown are generated with either the AlphaScreen SureFire p-ERK1/2 (Thr202/Tyr204) assay kit (Cat #TGRES50k) or the AlphaLISA® SureFire® Ultra™ p-ERK 1/2 (Thr202/Tyr204) assay kit (Perkin Elmer cat #ALSU-PERK-A10K). The activity of the NRG1 peptide was similar in both types of assays. Raw data obtained from the Envision instrument is imported into GraphPad Prism software (version 7). The EC50 value is generated by a variable slope-four parameter dose response curve. The % of maximal NRG1 activity data are generated by expressing the average maximal raw data for the NRG4 compound over the average maximal raw data for the native human NRG1 per plate and multiplying by 100. Data are provided below in Tables 7-9. N values reflect number of independent assays run. […]
# [1] = Plasma pharmacokinetics in monkeys (toxicology studies); conditions: cynomolgus monkey, in vivo, sc, 3 mg/kg
# Description: (§3) Example 11 is administered in a single 3 mg/kg dose to male and female monkeys by SC bolus injection.
# human HER2/HER3 = target: T2, human HER2/HER3 (Homo sapiens, UniProt P21860); test: Human HER2/HER3 phospho-ERK 1/2 assay, purified proteins, CHO-K1 cells; format: cell-based; conditions: purified proteins; phospho-ERK1/2
# T2 construct: expressed in transfected cells
# Description: as §1
# as §2, with “assays.” for “assays. Raw data obtained from the Envision instrument is imported into GraphPad Prism software (version 7). The EC50 value is generated by a variable slope-four parameter dose response curve. The % of maximal NRG1 activity data are generated by expressing the average maximal raw data for the NRG4 compound over the average maximal raw data for the native human NRG1 per plate and multiplying by 100. Data are provided below in Tables 7-9. N values reflect number of independent assays run.”
# rat HER2/HER3 = target: T3, rat HER2/HER3 (Rattus norvegicus, UniProt Q62799); test: Rat HER2/HER3 phospho-ERK 1/2 assay, purified proteins, CHO-K1 cells; format: cell-based; conditions: phospho-ERK1/2
# T3 construct: expressed in transfected cells
# Description: as §1
# A phospho-ERK1/2 activity assay is utilized with CHO-K1 cells overexpressing human or rat HER receptors to determine potencies and selectivity of purified NRG4 compounds. CHO-K1 cell lines expressing the human or rat HER receptors are cultured with selection medium (DMEM-F12 3:1 with 5% FBS with 20 mM HEPES, 40 μg/mL L-Proline, 1× antibiotics, 12 μg/mL puromycin, 1 mg/mL Hygromycin B). On Day −1 (the day before phospho-ERK1/2 assay), cells are washed once with PBS, detached with enzyme free cell dissociation solution (GIBCO cat #13151-014), and resuspended in plating medium (DMEM-F12 3:1 with 20 mM HEPES, lx antibiotics, 0.2% FBS). Cells are plated in a 96-well Poly-D-Lysine coated plate (BD cat #354640) at 10,000 cells per 0.1 mL per well. […] Then 7.5 μL donor beads are added and the plate is covered with aluminum foil and incubated at room temperature for 2 hours on plate shaker with 350 rpm agitation or at 4° C. for overnight (warm up plate at room temperature for 2 h before reading). Alpha signal data are obtained on an Envision instrument (Alpha Technology-compatible plate reader). […]
# cynomolgus monkeys = test: Toxicology study in cynomolgus monkeys, cardiac tissue inspection; conditions: male and female monkeys, single 3 mg/kg SC bolus injection
# Description: as §3
# human HER2/HER4 = target: T4, human HER2/HER4 (Homo sapiens, UniProt Q15303); test: Human HER2/HER4 phospho-ERK 1/2 assay, purified proteins, CHO-K1 cells; format: cell-based
# T4 construct: expressed in transfected cells
# Description: as §1, §2
# [2] = tested on: rat model of heart failure with reduced ejection fraction (HFrEF); test: Rat MI model, Example 11 dose-response, echocardiography; format: in vivo
# Description: A nonclinical efficacy pharmacology study is conducted in a rat model of heart failure with reduced ejection fraction (HFrEF) to identify dose-response relationship for Example 11.
# Briefly, the rats are anesthetized and positively ventilated throughout the procedure. […] The left coronary artery is permanently ligated. The sham-operated animals undergo the same procedure except the silk suture is placed around the left coronary artery without being tied. All rats are individually housed in a temperature and humidity controlled room and maintained on a 12 hour light/dark cycle. Three weeks after surgery, rats undergo transthoracic echocardiography for determination of ejection fraction (EF %) and left ventricle dimensions (LVD) using a Vevo 2100 ultrasound system. Rats are randomized across treatment groups according to EF % and LVD.
# Measurements of EF % and LVD are expressed as mean values±standard error (SE). Statistical analysis is performed with JMP® 13 software (SAS Institute, Inc.; Cary, N.C.) and Dunnett's Test is used for statistical comparisons across treatment groups. Statistical significance is accepted at P<0.05.
# Two to three weeks after MI surgery, animals are allocated to treatment groups and treated with a single injection of vehicle (DPBS) or one of the 3 dose levels (0.3, 1, 3 mg/kg) of Example 11.
# [3] = Plasma pharmacokinetics in rats (toxicology studies); conditions: rat, in vivo, sc, 30 mg/kg
# Description: as §3
# [4] = maximal signal relative to native human NRG1 per plate
# [5] = purified proteins, phospho-ERK1/2
# T1 sequence (Q62956 26-1308): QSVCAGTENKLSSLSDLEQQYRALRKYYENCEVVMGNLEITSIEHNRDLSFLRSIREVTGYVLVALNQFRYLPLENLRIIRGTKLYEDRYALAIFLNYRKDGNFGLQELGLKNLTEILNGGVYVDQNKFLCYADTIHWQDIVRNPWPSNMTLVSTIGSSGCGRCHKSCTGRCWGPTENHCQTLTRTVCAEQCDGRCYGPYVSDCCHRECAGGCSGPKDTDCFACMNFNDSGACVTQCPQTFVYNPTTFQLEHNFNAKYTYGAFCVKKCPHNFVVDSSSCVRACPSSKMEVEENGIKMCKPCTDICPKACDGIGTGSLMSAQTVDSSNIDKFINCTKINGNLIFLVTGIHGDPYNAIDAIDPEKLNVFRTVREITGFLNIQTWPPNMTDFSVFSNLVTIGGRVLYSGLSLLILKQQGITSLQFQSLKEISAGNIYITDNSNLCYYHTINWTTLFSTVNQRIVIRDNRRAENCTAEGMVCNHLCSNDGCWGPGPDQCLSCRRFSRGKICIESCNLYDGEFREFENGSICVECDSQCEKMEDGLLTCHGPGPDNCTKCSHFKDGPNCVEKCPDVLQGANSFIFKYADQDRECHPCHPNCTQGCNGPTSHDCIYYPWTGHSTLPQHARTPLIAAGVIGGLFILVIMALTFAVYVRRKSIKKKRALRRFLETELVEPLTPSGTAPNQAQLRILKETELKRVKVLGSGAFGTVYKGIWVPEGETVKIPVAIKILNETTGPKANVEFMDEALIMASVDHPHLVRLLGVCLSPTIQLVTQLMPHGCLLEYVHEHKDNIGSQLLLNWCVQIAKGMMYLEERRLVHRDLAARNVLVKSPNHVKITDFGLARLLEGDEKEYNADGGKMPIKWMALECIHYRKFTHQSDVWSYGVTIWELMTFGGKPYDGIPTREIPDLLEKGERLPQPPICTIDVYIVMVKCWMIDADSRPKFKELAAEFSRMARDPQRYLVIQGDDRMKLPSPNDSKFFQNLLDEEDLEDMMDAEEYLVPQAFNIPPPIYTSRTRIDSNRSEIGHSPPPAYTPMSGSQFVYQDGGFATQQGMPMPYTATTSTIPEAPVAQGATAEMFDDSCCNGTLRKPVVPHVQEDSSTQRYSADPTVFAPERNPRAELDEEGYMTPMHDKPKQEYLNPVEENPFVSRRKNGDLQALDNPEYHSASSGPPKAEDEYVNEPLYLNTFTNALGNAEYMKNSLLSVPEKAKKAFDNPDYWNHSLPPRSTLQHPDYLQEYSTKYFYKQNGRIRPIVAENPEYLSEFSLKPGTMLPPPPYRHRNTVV
# T1 sequence (P06494 23-1257 partner): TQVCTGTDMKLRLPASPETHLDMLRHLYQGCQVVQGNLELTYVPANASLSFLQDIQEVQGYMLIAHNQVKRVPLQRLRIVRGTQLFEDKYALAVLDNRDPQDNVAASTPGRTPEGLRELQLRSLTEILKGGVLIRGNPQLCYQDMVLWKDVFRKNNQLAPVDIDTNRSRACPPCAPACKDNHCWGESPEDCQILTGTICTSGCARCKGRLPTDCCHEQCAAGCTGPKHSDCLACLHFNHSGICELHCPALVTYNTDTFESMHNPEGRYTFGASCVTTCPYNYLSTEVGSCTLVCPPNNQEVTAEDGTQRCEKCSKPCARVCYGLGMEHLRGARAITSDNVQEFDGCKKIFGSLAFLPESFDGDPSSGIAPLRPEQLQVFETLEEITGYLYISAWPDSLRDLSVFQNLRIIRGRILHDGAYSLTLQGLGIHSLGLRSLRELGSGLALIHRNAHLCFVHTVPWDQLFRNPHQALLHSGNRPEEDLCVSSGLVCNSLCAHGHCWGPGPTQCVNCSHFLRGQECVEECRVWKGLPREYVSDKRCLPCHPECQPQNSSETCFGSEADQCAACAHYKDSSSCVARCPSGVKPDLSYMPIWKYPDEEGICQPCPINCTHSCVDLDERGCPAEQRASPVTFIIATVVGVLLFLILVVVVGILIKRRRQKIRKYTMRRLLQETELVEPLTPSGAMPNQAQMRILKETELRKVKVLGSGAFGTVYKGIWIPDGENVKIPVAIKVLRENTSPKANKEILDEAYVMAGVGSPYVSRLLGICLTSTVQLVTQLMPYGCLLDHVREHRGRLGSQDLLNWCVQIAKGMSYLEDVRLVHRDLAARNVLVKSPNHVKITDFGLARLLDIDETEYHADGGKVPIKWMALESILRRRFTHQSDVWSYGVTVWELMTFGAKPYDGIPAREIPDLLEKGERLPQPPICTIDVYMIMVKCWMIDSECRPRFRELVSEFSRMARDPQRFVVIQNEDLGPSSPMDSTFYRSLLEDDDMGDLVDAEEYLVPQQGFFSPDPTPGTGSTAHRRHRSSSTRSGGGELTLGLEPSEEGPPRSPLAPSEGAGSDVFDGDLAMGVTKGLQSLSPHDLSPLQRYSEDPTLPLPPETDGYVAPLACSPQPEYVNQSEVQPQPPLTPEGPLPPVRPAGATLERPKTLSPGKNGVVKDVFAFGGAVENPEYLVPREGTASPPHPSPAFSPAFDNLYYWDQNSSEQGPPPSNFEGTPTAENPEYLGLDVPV
# T3 sequence (Q62799 20-1339): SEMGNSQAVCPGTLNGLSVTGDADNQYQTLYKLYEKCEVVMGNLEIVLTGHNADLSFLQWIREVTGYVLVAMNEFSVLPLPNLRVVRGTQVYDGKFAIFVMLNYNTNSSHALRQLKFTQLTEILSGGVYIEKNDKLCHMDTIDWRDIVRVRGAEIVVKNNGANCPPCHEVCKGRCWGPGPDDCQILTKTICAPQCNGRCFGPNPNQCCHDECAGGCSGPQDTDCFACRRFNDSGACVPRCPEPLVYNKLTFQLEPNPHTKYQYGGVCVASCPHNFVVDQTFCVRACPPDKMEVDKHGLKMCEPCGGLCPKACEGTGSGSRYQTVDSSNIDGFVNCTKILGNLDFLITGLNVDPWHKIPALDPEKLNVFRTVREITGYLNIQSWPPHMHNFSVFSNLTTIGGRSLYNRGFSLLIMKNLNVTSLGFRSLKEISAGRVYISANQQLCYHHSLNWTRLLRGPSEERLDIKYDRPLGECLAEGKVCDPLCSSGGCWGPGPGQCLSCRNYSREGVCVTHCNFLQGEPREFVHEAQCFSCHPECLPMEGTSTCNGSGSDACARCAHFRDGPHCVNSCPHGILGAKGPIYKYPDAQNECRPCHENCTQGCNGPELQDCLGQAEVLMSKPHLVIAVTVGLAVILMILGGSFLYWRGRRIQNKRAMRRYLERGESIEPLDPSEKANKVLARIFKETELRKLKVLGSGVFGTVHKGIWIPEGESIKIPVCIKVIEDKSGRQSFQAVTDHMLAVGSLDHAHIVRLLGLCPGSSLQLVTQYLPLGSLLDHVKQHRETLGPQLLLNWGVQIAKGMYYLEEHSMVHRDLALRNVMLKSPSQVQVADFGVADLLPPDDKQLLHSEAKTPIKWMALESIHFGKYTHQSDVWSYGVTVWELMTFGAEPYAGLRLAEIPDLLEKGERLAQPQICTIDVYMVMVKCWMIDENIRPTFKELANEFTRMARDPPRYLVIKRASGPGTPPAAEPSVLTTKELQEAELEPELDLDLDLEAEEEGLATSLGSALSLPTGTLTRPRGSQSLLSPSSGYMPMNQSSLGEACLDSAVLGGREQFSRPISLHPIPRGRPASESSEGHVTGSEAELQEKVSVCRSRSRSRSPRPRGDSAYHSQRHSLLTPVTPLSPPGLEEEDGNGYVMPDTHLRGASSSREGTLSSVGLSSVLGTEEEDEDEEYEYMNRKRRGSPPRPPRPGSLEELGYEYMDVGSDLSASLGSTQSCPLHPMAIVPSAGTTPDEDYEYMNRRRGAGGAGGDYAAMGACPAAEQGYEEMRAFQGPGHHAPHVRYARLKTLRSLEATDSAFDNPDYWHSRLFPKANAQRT
# T3 sequence (P06494 23-1257 partner): as the sequence (P06494 23-1257 partner) above
molecule,measurement,setting,value
B1,inspections of tissue (cardiac toxicity),rats,no evidence of cardiac degeneration and/or necroses
same,% Maximal NRG1 activity,rat HER2/HER4; [4],96 ± 2 (N = 2) %
same,EC50,rat HER2/HER4; [5],0.17 ± 0.06 nM
same,time for detectable plasma concentrations to be cleared,[1],> 168 h
same,EC50,human HER2/HER3,> 1000 nM
same,EC50,rat HER2/HER3,> 1000 nM
same,inspections of tissue (cardiac toxicity),cynomolgus monkeys,cardiac degeneration and necrosis
same,% Maximal NRG1 activity,human HER2/HER4; [4],79 ± 2 (N = 5) %
same,EC50,human HER2/HER4; [5],0.55 ± 0.11 nM
same,Ejection Fraction,"[2]; 0.3 mg/kg single injection, 7 days after dosing",50.1* %
same,Ejection Fraction,"[2]; 0.3 mg/kg single injection, 14 days after dosing",42.6%
same,Ejection Fraction,"[2]; 0.3 mg/kg single injection, 21 days after dosing",36.4%
same,Ejection Fraction,"[2]; 0.3 mg/kg single injection, Baseline (before dosing)",45.4%
same,Ejection Fraction,"[2]; 1 mg/kg single injection, 7 days after dosing",52.4* %
same,Ejection Fraction,"[2]; 1 mg/kg single injection, 14 days after dosing",42.2%
same,Ejection Fraction,"[2]; 1 mg/kg single injection, 21 days after dosing",39.7%
same,Ejection Fraction,"[2]; 1 mg/kg single injection, Baseline (before dosing)",46.6%
same,Ejection Fraction,"[2]; 3 mg/kg single injection, 7 days after dosing",54.7* %
same,Ejection Fraction,"[2]; 3 mg/kg single injection, 14 days after dosing",54.0* %
same,Ejection Fraction,"[2]; 3 mg/kg single injection, 21 days after dosing",39.6%
same,Ejection Fraction,"[2]; 3 mg/kg single injection, Baseline (before dosing)",45.8%
same,LVD dilation,"[2]; 0.3, 1, 3 mg/kg single injection vs vehicle, course of the study (data not shown)",No differences in LVD dilation are observed across groups
same,plasma concentration,[3],undetectable at 96 hours

# Source: patent US11242370B2, “Neuregulin-4 compounds and methods of use” (Eli Lilly and Company, priority 2019, dated 2022)
